From patent US7585511

Tests used:
[1] = molecular target: N-terminal His-tagged version of serum resistance associated protein (SRA) (aa 1-251), wild type (Trypanosoma brucei rhodesiense); assay: pull-down of in vitro synthesized [35S]-apoL-I mutant with His-SRA on Ni-NTA beads, scintillation counting
[2] = molecular target: I58Q/I62Q serum resistance associated protein (SRA), His-tagged (Trypanosoma brucei rhodesiense); assay: pull-down of in vitro synthesized [35S]-apoL-I with mutant His-SRA on Ni-NTA beads, scintillation counting

Question: Which binding (%) [1] does the source give for “[35S]-apoL-I L345Y/L352A/Y354L point mutant, with C-terminal V5 tag (from UniProt O14791 16-398)” here?
Answer: 67%

Question: How did the binding (%) [1] turn out when “[35S]-apoL-I truncated version ending at aa 355, with C-terminal V5 tag (from UniProt O14791 28-355)” was run?
Answer: 24%

Question: For “[35S]-apoL-I truncated version ending at aa 342, with C-terminal V5 tag (from UniProt O14791 28-342)”, which binding (%) [1] is on record?
Answer: 5%

Question: “in vitro synthesized [35S]-apoL-I, wild type, with C-terminal V5 tag (from UniProt O14791 16-398)” was tested. Which binding (%) [2] did it give?
Answer: 50%
